# Results taken from PMC11354668.
# Tested on: ChromPure mouse IgG whole molecule (mouse)
# Test: BLI
# Conditions: 5'-biotin (unmodified in SPA competition); BLI (Octet K2), SAX2.0 sensors loaded with 0.5 uM 5'-biotin DNA, IgG 0.0125-0.2 mg/mL, PBST-B, 30 C; pH not …
row,Substance,Kd [nM]
1,CGCCTAGGTTGGGTAGGGTGGTGGCG [6GN7],241

# Same assay, conditions: 5'-biotin; BLI (Octet K2), SAX2.0 sensors loaded with 0.5 uM 5'-biotin DNA, IgG 0.0125-0.2 mg/mL, PBST-B, 30 C; pH not …
row,Substance,Kd [nM]
1,CCCCCCCCCCCCCCC [poly-C15],1360
2,GGGGGGGGGG [poly-G10],295
3,TTTTTTTTTTTTTTTTTTCCCTTTTTTTTTTTTTTTTTTT [5XRZ],843
4,TTTTTTTTTT [poly-T10],1490
5,TTTTTTTTTT [4OU6],947
6,TTTTTTTTTTTTTTTTTTTTTTTTT [4GNX],2100
7,TGTACAATGGG [3UGO],793
8,GGGGGGGGGGGGGGG [poly-G15],273
9,TTTTTTTTTTTTTTTT [6SKO],1070
10,TTTTTTTTTTTTTTTTTTTTTTTTT [poly-T25],1010
11,GGTTGGTGTGGTTGG [1RDE],1090
12,CAGTGGCTGA [2KN7],1200
13,GGGGTGGGTGGTGGGT [7XHD],521
14,GCGGCGG [5FGP],1510
15,TTTTTTTTTTTTTTTTTTTT [poly-T20],830
16,TTTTTTTTTTTT [4JS5],1730
17,TGGGGTGTGG [2A0I],872
18,TTTTTTTTTTTTTTTTT [7JSG],1120
19,TTTTTTTTTTTTTTT [poly-T15],909
20,TTTTTTTT [7JSI],1830
21,GGGGTTTTGGGGT [1PH1-D],881
22,TTTTTTTTTTTTTTTTTTTTTTTTTTTTTT [poly-T30],1430
23,GGGTCGGTGCCTTA [6CRM],1110
24,GGGGTTTTGGGG [1OTC],414
25,TTTTTTTTTTTTTTT [2CCZ],909
26,TTTTTTTTTTTTTTTG [2C62],3240

# Molecular target: staphylococcal protein A (UniProt P38507)
# Test: BLI; Octet K2; SPA biosensor (sensor type: ProA) with mouse IgG; SPA-IgG run as positive control; the IgG concentrations and times of this kinetic run are not described
# Conditions: not given
Substance,Kd [nM],koff [s⁻¹],kon [M⁻¹ s⁻¹]
ChromPure mouse IgG whole molecule (antibody),14.9,0.000716,48000
